The values that follow come from US20180009892A1 (EUREKA THERAPEUTICS, published 2018).

Numbering of substitutions follows the chain as printed.

A word on the IC50: it is the concentration that gives 50% inhibition.

The target of assay [1] is T1, human ROR1 extracellular domain (ECD) protein (human, UniProt Q01973 30-406).
T1 construct: also called hROR1-ECD; human ROR1-ECD
Put plainly: competitive phage ELISA: soluble ROR1 against ROR1-coated plate. As to the method: Purified phage antibodies were first diluted serially in PBST buffer, and tested for binding to a ROR1-coated plate. The dilution that gave 50-80% saturating signal was used in the solution binding assay in which phage were first incubated with increasing concentration of ROR1 for one to two hours, and then transferred to a ROR1-coated plate for 10-15 minutes to capture the unbound phage.
Background: In an ELISA, binding on a coated surface is turned into a signal by an enzyme label.

For assay [2], the target named is T2, human ROR2-ECD (human, UniProt Q01974 34-403).
T2 construct: extracellular domain; also called hROR2
Put plainly: protein ELISA, phage.

T2 sequence (Q01974 34-403): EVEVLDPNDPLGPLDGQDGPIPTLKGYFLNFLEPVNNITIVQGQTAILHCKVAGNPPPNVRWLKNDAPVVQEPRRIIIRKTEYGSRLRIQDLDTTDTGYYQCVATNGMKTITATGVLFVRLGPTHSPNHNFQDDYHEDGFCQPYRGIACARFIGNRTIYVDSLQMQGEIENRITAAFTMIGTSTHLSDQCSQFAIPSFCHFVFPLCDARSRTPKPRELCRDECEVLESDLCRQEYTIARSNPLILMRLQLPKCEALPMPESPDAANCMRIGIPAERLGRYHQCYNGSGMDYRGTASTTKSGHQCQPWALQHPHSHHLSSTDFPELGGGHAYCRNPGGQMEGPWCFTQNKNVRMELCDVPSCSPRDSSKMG
T1 sequence (Q01973 30-406 limits assumed): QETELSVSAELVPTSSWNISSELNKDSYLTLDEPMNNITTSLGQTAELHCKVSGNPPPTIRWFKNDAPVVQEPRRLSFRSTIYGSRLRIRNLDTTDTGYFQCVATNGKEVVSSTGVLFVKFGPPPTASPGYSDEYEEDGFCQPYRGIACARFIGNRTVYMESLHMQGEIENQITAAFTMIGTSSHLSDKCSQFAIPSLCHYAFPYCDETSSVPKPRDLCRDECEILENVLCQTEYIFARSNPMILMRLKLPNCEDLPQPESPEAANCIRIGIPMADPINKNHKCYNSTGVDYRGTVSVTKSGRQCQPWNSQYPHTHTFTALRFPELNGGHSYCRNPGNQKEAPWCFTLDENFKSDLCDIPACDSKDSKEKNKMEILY

B1: P601-65 (scFv, V domains shown)
VH: QVQLQQSGPGLVKPSQTLSLTCAISGDSVSSNSATWNWIRQSPSRGLEWLGRTYYRSKWYNDYAVSVKSRIIINPDTSKNQFSLQLNSVTPEDTAVYYCARGVRAFDIWGQGTTVTVSS
VL: QSVLTQPPSVSGTPGQRVTIFCSGGSNNIGRSSVYWYRQAAGTAPKLLIYKTDQRPSGVPDRFAASKSGASASLAISGLRSEDEADYHCATWDDSLSAVVFGGGTKLTVL
On to B1, for which the 50% inhibitory concentration (IC50) in assay [1] was 4.23 nM. In addition, the binding result in assay [2] is on record as “no binding”.

B2: P601-9 (scFv, V domains shown)
VH: QLQLQESGPGVVKPSGTLSLTCTVSGGSISRSDGYWGWVRQPPGKGLEWIGSIYDTGTTYYSPSLKSRLIISVDTSKNQFSLTLNSVTAADTAVYYCASMGGLRSSSSDAFHTWGPGTMVTVSS
VL: QSVLTQPPSVSVAPGETARITCGGTNIGSESVHWYQQRPGQAPVLVVYDDTDRPSGIPERFSGSNSGNTATLTISRVEAGDGADYYCQVWDSVSDRYVFGTGTKVTVL
As to B2, the IC50 in assay [1] stood at 14.6 nM. Moreover, the binding result in assay [2] is reported as “no binding”.

B3: P601-70 (scFv, V domains shown)
VH: EVQLVQSGAELKKPGSSVRVSCKTSGGSFKTHGISWVRQAPGQGLEWMGWINPNSGGALYVDNFQGRATMTRDTSINTAYMELRSLSSDDTAVYYCARGMADLIDVFDIWGQGTMVTVSS
VL: TQPALTQPASVSGSPGQSITISCTGTSSDFGDYDYVSWYQQHPGKAPKLMIYDVSDRPSGVSNRFSGSKSGNTASLTISGLQAEDEADYFCSSFTTSSTLVFGGGTKLTVL
Turning to B3, the IC50 in assay [1] worked out at 74 nM. Moreover, in assay [2], the binding result is listed as “no binding”.

B4: P601-50 (scFv, V domains shown)
VH: QVQLQQSGAEVKKPGASVKVSCKASGYTFSRYYIHWVRRAPGQGLEWMGLINPGGGSTNYAQKFQGRVTMTRDTSTNTVYLELSSLRSDDTAVYYCARDYGTIDARRFDFWGQGTLVTVSS
VL: QSALTQPPSASGTPGQRVTISCPGSSSNIGSNYVYWYQQLPGTAPKLLIYRNNQRPSGVPDRFSGSKSGTSATLGITGLQTGDEADYYCGTWDSSLSAYVFGTGTKVTVL
Regarding B4, the IC50 in assay [1] was 24.1 nM. Also, the binding result in assay [2] is given as “no binding”.

B5: P601-69 (scFv, V domains shown)
VH: QVQLVQSGAEVKKPGESLKISCKGSGYSFTSYWIGWVRQMPGKGLEWMGIIYPGDSDTRYSPSFQGQVTISADKSISTAYLQWSSLKASDTAMYYCARLSSSSYDAFDIWGQGTMVTVSS
VL: QSALTQPASVSGSPGQSITISCTGTSSDVGGYNYVSWYQQHPGKAPKLMIYDVSNRPSGVSNRFSGSKSGNTASLTISGLQAEDEADYYCSSYTSSSIPWVFGGGTKLTVL
Take B5: the IC50 in assay [1] came out at 9.81 nM. Moreover, in assay [2], the binding result is on record as “no binding”.

B6: P601-100 (scFv, V domains shown)
VH: EVQLVQSGGGVVQPGGPLRLSCAASGFTFSSYSMNWVRQAPGKGLEWVSSISSSSSYIYYADSVKGRFTISRDNAKNSLYLQMNSLRAEDTAVYYCARGLGGWTHDAFDIWGQGTMVTVSS
VL: QSALTQPASVSGSPGQSITISCTGTSRDVGGYDYVSWYQQYPGNAPKLMIYDVSRRPSGVSHRFSASKSGNTASLTISGLQTEDEADYYCSSYTSSSTRVFGGGTKVTVL
With B6, the IC50 in assay [1] was 5.8 nM. The binding result in assay [2] is listed as “no binding”.

B7: P601-119 (scFv, V domains shown)
VH: B6 VH with E1Q, V11L, Q13K, P17S, S30G, S31T, M116T
VL: QSALTQPASVSASPGQSITISCTGTSSDVGGYNYVTWYQQHPGKAPKLMIYDVSKRPSGVLDRFSGSKSGNTASLTISGLQAEDEADYFCSSYTSSSTLVFGGGTKLTVLG
In turn, B7 registered a 50% inhibitory concentration (IC50) in assay [1] of 17.7 nM. Besides, the binding result in assay [2] is reported as “no binding”.

B8: P601-102 (scFv, V domains shown)
VH: B6 VH with E1Q, V2M, G10D, V11L, P17S, M116T
VL: B5 VL with N55K, I98T, P99S, W100V
Molecule B8 yielded an IC50 in assay [1] of 10.2 nM. Moreover, the binding result in assay [2] was “no binding”.
